*1 amine or outer side, *2 acyl side, *3 side chain or, on linkers, in order; H or OH if unused. Bridges are numbered along the chain shown (N, C = ends). Side-chain parts run from the residue outwards. [ ]: non-standard residue; d: D form. VCPAB = valine-citrulline p-aminobenzylcarbamate linker, CC(C)[C@H](N[*:1])C(=O)N[C@@H](CCCNC(N)=O)C(=O)Nc1ccc(COC(=O)[*:2])cc1; tBuAla = CC(C)(C)C[C@H](N)C(=O)O; MMAE = monomethyl auristatin E; Tle = CC(C)(C)[C@H](N)C(=O)O; Nle = CCCC[C@H](N)C(=O)O; βAla = NCCC(=O)O; Sar = CNCC(=O)O
Legend:
[1] = test system: MDA-MB-231 tumor cells; experiment: MDA-MB-231 murine xenograft efficacy model; format: in vivo, BALB/c Nude mice
Method: Murine xenograft experiments were conducted at WuXi AppTec and/or Charles River Laboratories and the care and use of animals was conducted in accordance with the regulations of the Association for Assessment and Accreditation of Laboratory Animal Care (AAALAC). MDA-MB-231 tumor cells (ATCC, Manassas, VA, cat #HTB-26) were grown and maintained in L15 medium supplemented with 10% heat inactivated fetal bovine serum, 1% Antibiotic-Antimycotic, and L-glutamine (2 mM) at 37° C. in an atmosphere in 5% CO2, 95% air. BALB/c Nude, female, 6-8 weeks, weighing approximately 18-22 g were purchased from Vital River Laboratory Animal Technology Co., LTD. Mice were inoculated subcutaneously at the right flank with MDA-MB-231 tumor cells (e.g., triple negative breast cancer cells) (10×10^6) in 0.2 mL of PBS with Matrigel (1:1) for tumor development. Animals were randomized and treatment was started when the average tumor volume reached approximately 150-200 mm^3 for the efficacy study. Dosing volume was adjusted based on body weight and was administered at 10 ml/Kg. […] Free MMAE payload was also tested, and similarly dissolved in 25 mM Histidine 10% sucrose pH 7 and one or more of the following doses, 0.6, 0.06 mg/kg, were administered to the mice i.v. at a QW×4 schedule. Tumor sizes were measured twice weekly in two dimensions using a caliper, and the volume in mm^3 calculated using the formula: V=0.5 a×b^2, where a and b are the long and short diameters of the tumor, respectively. TGI was calculated for each group using the formula: TGI (%)=[1−(Ti−T0)/(Vi−V0)]×100; where Ti is the average tumor volume of a treatment group on a given day, T0 is the average tumor volume of the treatment group on the first day of treatment, Vi is the average tumor volume of the vehicle control group on the same day with Ti, and V0 is the average tumor volume of the vehicle group on the first day of treatment.

[2] = Murine plasma stability assay; format: in vitro ADME; details: mouse, 37° C., read-out: Murine plasma stability assay, T1/2
Method: Frozen plasma was thawed at 37° C. and centrifuged at 4000 rpm to remove any clots and transferred to 96-well reaction plates by WuXi AppTec. Test compounds were added to the reaction plate at a final concentration of 2 μM and either stopped immediately or incubated at 37° C. for 5 minutes, 10 minutes, 30 minutes, 60 minutes, or 120 minutes. At the end of incubation, stop solution consisting of 200 ng/mL tolbutamide and 200 ng/mL labetalol in ACN was added to precipitate protein and mixed thoroughly. Samples were then transferred to a bioanalysis plate and shaken for 10 minutes prior to HPLC-MS/MS analysis of percent remaining compound.

[3] = Murine hematotoxicity assay; format: in vivo, BALB/c mice; details: 3 mg/kg i.v. QW×4, compared to vehicle or MMAE treatment
Method: Murine hematotoxicity experiments were conducted at Charles River Laboratories and the care and use of animals was conducted in accordance with the regulations of the Association for Assessment and Accreditation of Laboratory Animal Care (AAALAC). Wild type BALB/c, female, 7-8 weeks, weighing approximately 18-22 g were randomized and dosed intravenously with control or test articles at a QW×4 schedule. Dosing volume was adjusted based on body weight and was administered at 10 mL/Kg. PDCs were dissolved in 25 mM Histidine 10% sucrose pH 7 and 3 mg/kg was administered. Free MMAE payload was also tested, and similarly dissolved in 25 mM Histidine 10% sucrose pH 7 and administered to the mice at a dose of […] by i.v. injection at a QW×4 schedule. 3 days following each dose, 150 μL of whole blood was collected via submandibular method and placed in K2 EDTA tubes stored on ice. Blood neutrophil counts were performed on the day of collection by IDEXX labs. Body weights were recorded twice a week until study endpoint.
As outlined in the material and methods of Example 1, wild type BALB/c, female, 7-8 weeks, weighing approximately 18-22 g were randomized and dosed intravenously with control or test articles at a QW×4 schedule. Dosing volume was adjusted based on body weight and was administered at 10 ml/Kg. […] Free MMAE payload was also tested, and similarly dissolved in 25 mM Histidine 10% sucrose pH 7 and administered to the mice at a dose of […] by i.v. injection at a QW×4 schedule. 3 days following each dose, 150 μL of whole blood was collected via submandibular method and placed in K2 EDTA tubes stored on ice. Blood neutrophil counts were performed on the day of collection by IDEXX labs. Body weights were recorded twice a week until study endpoint.

[4] = target: T1, SORT1 (Homo sapiens, UniProt Q99523); experiment: Direct binding in fluorescence polarization (FP), FAM-labeled peptides; details: direct titration, FAM-labeled peptide
T1 construct: Human SORT1 (78-755)-His (Acrobiosystems); His (C); purchased Acrobiosystems SON—H52H5
T1 sequence (Q99523 78-755): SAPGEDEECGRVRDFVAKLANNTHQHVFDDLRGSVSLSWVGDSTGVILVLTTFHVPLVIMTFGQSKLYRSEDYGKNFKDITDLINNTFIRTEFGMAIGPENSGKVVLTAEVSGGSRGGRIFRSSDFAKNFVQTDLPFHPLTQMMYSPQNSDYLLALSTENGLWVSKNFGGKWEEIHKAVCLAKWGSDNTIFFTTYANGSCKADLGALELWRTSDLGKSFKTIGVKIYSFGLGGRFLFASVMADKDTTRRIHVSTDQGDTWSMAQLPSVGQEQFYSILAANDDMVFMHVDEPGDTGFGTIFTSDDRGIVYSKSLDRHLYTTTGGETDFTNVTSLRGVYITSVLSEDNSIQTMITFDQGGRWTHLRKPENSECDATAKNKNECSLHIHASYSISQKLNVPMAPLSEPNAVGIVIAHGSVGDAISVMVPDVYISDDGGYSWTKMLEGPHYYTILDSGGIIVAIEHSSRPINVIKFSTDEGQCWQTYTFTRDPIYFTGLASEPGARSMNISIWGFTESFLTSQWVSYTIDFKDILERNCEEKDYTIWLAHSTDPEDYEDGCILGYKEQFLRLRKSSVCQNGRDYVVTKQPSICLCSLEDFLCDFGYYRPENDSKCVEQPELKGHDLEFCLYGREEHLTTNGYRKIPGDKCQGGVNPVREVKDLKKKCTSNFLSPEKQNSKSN
Method: Peptides were dissolved into stock solutions in water, then brought up to final concentrations in 1×PBS, pH 7.4 and tested in DLS and CD (methods above) to ensure the peptides were soluble. Peptide concentrations were determined by quantifying the dye using the nanodrop and dye specific extinction coefficient at a specific wavelength. For FAM labeled dyes, the extinction coefficient 83000 cm^−1 M^−1 was used.
FAM labeled peptides were diluted to 1 μM in FP buffer (1×PBS, pH 7.4, 0.1% Tween-20) and serially diluted two-fold for a 12-point series to determine concentration at which the fluorescence intensity was 10,000 RFU and the polarization of the peptide was consistent. A 10× working solution would thus be 10× the concentration of FAM labeled peptide that satisfied the above criteria. […]
A 10× working solution of FAM-labeled peptides was prepared in the FP buffer (1×PBS, pH 7.4, 0.1% Tween-20). […] The 384-well plate was then centrifuged 1 min, 4000 rpm and fluorescence and polarization of dye measured on a Biotek Synergy Neo2 plate reader using the following settings (Excitation 485/20, Emission 528/20, Top read, Gain: 75, Light source: Xenon Flash, Lamp Energy: Low, Standard Dynamic range, Read speed: Normal, Delay: 0 msec, Measurements/Data Point: 10, Read Height: 9 mm). […]

[5] = Dynamic light scattering (DLS) solubility/aggregation; format: physicochemical; details: working concentrations (250 nM, PBS, pH 7.4)
Method: Samples were spun down on a bench top centrifuge, 15 minutes, 15,000 rpm, room temperature, to pellet any aggregated peptide/dust before taking a measurement. Visual inspection of the tubes was used to identify if any large pellets were formed, which is indicative of large aggregates. […] The plate was then transferred and read on the DLS instrument (Wyatt Technology DynaPro Plate Reader III) at 25° C.

[6] = target: T2, Human SORT1 (78-755)-His (Acrobiosystems) (human, UniProt Q99523 78-755); experiment: SPR (Biacore 8K), SORT1 amine-coupled to CM5 chip, PDC as analyte, 1:1 kinetic model
T2 construct: range 78-755; Amine-coupled to a CM5 chip in the SPR assay; not shown: His tag
T2 sequence (looked up): T1 sequence (Q99523 78-755)
Method: SPR analysis was performed on Series S CM5 chips (Cytiva) using a Biacore 8K instrument (Cytiva). Sensorgrams were double-referenced by subtracting the response on both a reference flow cell and a blank sample. Human SORT1 (78-755)-His (Acrobiosystems) was diluted to 60 μg/mL in 10 mM sodium acetate pH 4.5 buffer and immobilized onto Series S CM5 chips using amine coupling at a flow rate of 10 μL/min for 45 s. The final immobilization level of SORT1 was between 2200-2600 RU.
For the multi-cycle kinetics analysis runs, a running buffer of 1×PBS pH 7.4, 0.005% Tween-20 was used. Five start-up cycles and a blank cycle preceded each analysis run. The runs were performed by sequential injections of analyte (0-25 nM) with a 150 seconds (s) association and 300 s dissociation at a flow rate of 30 μL/min, followed by a regeneration with 2 M MgCl₂ for 200 s at a flow rate of 10 μL/min. The kinetic rate constants (kₐ and kd) and the equilibrium binding constant (Kd) were calculated using a 1:1 kinetic binding model on the Biacore Insight Evaluation Software (Cytiva).

For `CC[C@H](C)[C@@H]([C@@H](CC(=O)N1CCC[C@H]1[C@H](OC)[C@@H](C)C(=O)N[C@H](C)[C@@H](O)c1ccccc1)OC)N(C)C(=O)[C@@H](NC(=O)[C@H](C(C)C)N(C)C(=O)OCc1ccc(NC(=O)[C@H](CCCNC(N)=O)NC(=O)[C@@H](NC(=O)CCCC(=O)NCCC(=O)N(C)CC(=O)N(C)CC(=O)N(C)CC(=O)N(C)CC(=O)N[C@@H](C)C(=O)N2CCC[C@H]2C(=O)N[C@@H](CCCNC(=N)N)C(=O)N[C@@H](Cc2c[nH]c3ccccc23)C(=O)N[C@@H](CC(=O)O)C(=O)N[C@@H](C)C(=O)N2CCC[C@H]2C(=O)N[C@@H](CC(C)C)C(=O)N[C@@H](CCCNC(=N)N)C(=O)N[C@@H](CC(=O)O)C(=O)N2CCC[C@H]2C(=O)N[C@@H](C)C(=O)N[C@@H](CC(C)C)C(=O)N[C@@H](CCCNC(=N)N)C(=O)N[C@@H](CCC(N)=O)C(=O)N[C@H](C(=O)N[C@@H](CC2CCC2)C(=O)O)C(C)(C)C)C(C)C)cc1)C(C)C` [Arb-SAR-Q15-PDC], the “tumor growth inhibited relative to vehicle” value ([1]; 3 mg/kg i.v. QW×4, day 22 (Example 8)) was 98%, the body weight loss ([1]; Example 8, PDC 3 mg/kg, free MMAE 0.6 mg/kg, i.v. QW×4) was “body weight loss tracked each other” and the half-life at 2 μM [2] was 49.7 min. For the same molecule, the blood neutrophil counts [3] was “reduced neutrophil counts”.

With `CC(C)C[C@H](NC(=O)[C@H](CC(C)C)NC(=O)[C@H](CC(=O)O)NC(=O)[C@H](CCCNC(=N)N)NC(=O)[C@@H]1CCCN1C(=O)[C@H](CC(C)C)NC(=O)[C@H](CCCNC(=N)N)NC(=O)[C@H](C)NC(=O)[C@H](CC(C)C)NC(=O)[C@H](CCCNC(=N)N)NC(=O)[C@@H](N)CCC(N)=O)C(=O)N[C@@H](C)C(=O)N[C@@H](Cc1c[nH]c2ccccc12)C(=O)N1CCC[C@H]1C(=O)N1CCC[C@H]1C(=O)N[C@@H](C)C(=O)N[C@@H](CC(=O)O)C(=O)O` [PRGN_scr, reference compound] the “affinity in FP (direct binding to SORT1-Ag)” value [4] was “no binding” and the “solubility (DLS)” value [5] was “good solubility”.

Molecule Ac-RWCENK([Sar-Sar-Sar-Sar-βAla-VCPAB-MMAE])R[Nle]FTCRQ[Tle][tBuAla]-OH (disulfide 3-11, C-term COOH) [Arb_cyclic_G23-PDC] has a Kd [6] of 0.89 nM.
